Test results: article PMC5964048
pKd: −log10 of the molar value.

Target: Fluorescein-labeled murine N-WASP-VCA (a.a. 399-501) (murine) (UniProt Q91YD9)
Assay: fluorescence polarisation

ACD-cross-linked actin oligomers (from UniProt P68135 1-377)
pKd: 8.10
